Measured values taken from PMC12528321.

T1: AmMIXTA (Antirrhinum majus, UniProt Q38739 1-321)
T1 sequence: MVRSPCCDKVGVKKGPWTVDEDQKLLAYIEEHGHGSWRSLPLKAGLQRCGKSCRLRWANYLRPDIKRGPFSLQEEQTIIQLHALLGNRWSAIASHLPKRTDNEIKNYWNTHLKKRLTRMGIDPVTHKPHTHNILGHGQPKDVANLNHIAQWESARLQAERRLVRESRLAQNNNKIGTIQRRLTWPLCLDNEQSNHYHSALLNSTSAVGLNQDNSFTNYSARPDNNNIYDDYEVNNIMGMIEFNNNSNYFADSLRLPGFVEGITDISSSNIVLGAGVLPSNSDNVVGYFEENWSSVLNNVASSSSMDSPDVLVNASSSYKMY

T2: NtZFP8 (Nicotiana tabacum, UniProt A0A1S4DEM8 1-256)
T2 sequence: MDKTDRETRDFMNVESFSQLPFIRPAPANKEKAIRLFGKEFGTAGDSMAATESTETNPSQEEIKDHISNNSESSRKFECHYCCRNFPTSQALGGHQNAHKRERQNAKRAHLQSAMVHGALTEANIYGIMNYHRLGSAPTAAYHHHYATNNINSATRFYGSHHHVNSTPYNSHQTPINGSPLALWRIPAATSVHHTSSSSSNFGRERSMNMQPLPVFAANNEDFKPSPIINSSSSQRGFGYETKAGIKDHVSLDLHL

B1: MIXTA_EMSA_Probe (dsDNA)
DNA 1: AGACGGATCCATTGCAATAGGTGGTGGTGGATCCTGTAGGAATTCGGA
DNA 2: TCCGAATTCCTACAGGATCCACCACCACCTATTGCAATGGATCCGTCT
B2: ZFP8_EMSA_Probe (dsDNA)
DNA 1: AGACGGATCCATTGCAATAAGAAGAAGAAGATCCTGTAGGAATTCGGA
DNA 2: TCCGAATTCCTACAGGATCTTCTTCTTCTTATTGCAATGGATCCGTCT

How the values were obtained:
[1] = molecular target: T1, AmMIXTA; assay: EMSA
[2] = molecular target: T2, NtZFP8; assay: EMSA

| Binder | binding result [1] | binding result [2] |
| --- | --- | --- |
| B1 | binds | – |
| B2 | – | binds |
